# Laboratory results as given in US20080311122A1, “Antagonists of Hmgb1 and/or Rage and Methods of Use Thereof” (Medimmune, LLC, priority 2005, published 2008).
# “Also recorded” adds a separate entry of the source.
# B1: G2: human anti-HMG1 IgG1 from Fab phage display library; VL/VH aa SEQ ID NO: 30/32 (antibody, listed as Homo sapiens, V domains shown)
# VH: EVQLLESGGGLVQPGGSLRLSCAASGFTFSWYKMQWVRQAPGKGLEWVSGISPSGGSTAYADSVKGRFTISRDNSKNTLYLQMNSLRAEDTAVYYCAKMGLFNTGNSYVDYWGQGTLVTVSS
# VL: AQSELTQPPSVSEAPGQRVTISCSGSTSNIGNNAVIWYQQLPGKAPKLLIYYDDLLPSGVSDRFSGSKSGTSGSLAISGLQSEDEADYYCASWDDNLNGPLFGGGTKLTVL
# B2: S16: human anti-HMG1 antibody, ATCC PTA-6259; VL/VH aa SEQ ID NO: 13/15 (antibody, listed as Homo sapiens, V domains shown)
# VH: EVQLLESGGGLVQPGGSLRLSCAASGFTFSWYSMLWVRQAPGKGLEWVSYISPSGGFTNYADSVKGRFTISRDNSKNTLYLQMNSLRAEDTAVYYCARWDYNSGWYYDHWGQGTLVTVSS
# VL: AQDIQMTQSPDTLSLSPGERATLSCRASQSVNSRNLAWYQQKPGQAPRLLIYGASTRATGIPDRFSGSVSGTEFTLTISSLQPDDFATYYCQQYNSYFTFGQGTKLEIK
# B3: E11: human anti-HMG1 antibody, recognizes HMG1 A-Box; VL/VH aa SEQ ID NO: 24/26 (antibody, listed as Homo sapiens, V domains shown)
# VH: EVQLLESGGGLVQPGGSLRLSCAASGFTFSRYQMNWVRQAPGKGLEWVSSISPSGGHTHYADSVKGRFTISRDNSKNTLYLQMNSLRAEDTAVYYCAKDGRQGKISTVDHWGQGTLVTVSS
# VL: AQDIQMTQSPGTLSLSPGERATLSCRASQSVRSNFLAWYQQKPGQAPRLLIYGASRRASGIPDRFSGSGFGADFTLSISRLEPEDFAVYYCQQYGSSPNTFGQGSRVEIK
# Tests used:
# [1] = system: passive CIA mouse model of arthritis; test: Passive collagen-induced arthritis (CIA) mouse model; type: in vivo; settings: percent protection, isotype control subtracted
# Experimental: Induction of Passive Collagen Induced Arthritis (CIA): To establish an arthritis model six-eight week old male DBA/1J mice (Jackson Labs, Bar Harbor, Me.) were used. Generally 5-8 mice per group are used, On day 0, mice were immunized with 2 mg/mouse of anti-collage mAb cocktail (Chemicon # ECM1100, 10 mg/ml) intravenously, i.v. at tail. Mice were subsequently injected with 50 μg LPS/mouse, i.p. on day 3. Each experiment had several groups of animals as follows: groups A-E in experiment 1, groups G-J in experiment 2 and groups L-N). An additional group of mice (groups F, K and O) were untreated as normal controls.
# Monitoring Disease: Beginning at day 0 all animals were observed daily to assess the status of the disease in their paws, which was done by assigning a qualitative clinical score to each of the paws. Every day, each animal has its 4 paws scored according to its state of clinical disease. The scoring is done by two observers, with at least one blinded. In addition, each mouse is weighed, to follow body weight changes, at the same time the paws are scored (see FIGS. 6A and 6D)
# The grading scale for the 4 lateral digits of each paw are graded as involved or not involved, i.e., 1 or 0. For example, a maximally involved left rear paw would be scored: ankle=3, midfoot=3, digits=4 (clinical score=10 units) We would repeat this for each paw and sum the scores. […]
# [2] = system: THP-1 cells; test: HMG1 binding to THP-1 cells; set-up: species or system human
# Experimental: HMG1 binding to THP-1 Cells: Recombinant rat HMGB-1 was labeled using Eu-labelling Kit from PerkinElmer. Molar ratio of HMGB-1 to Eu is 1:5. THP-1 were cultured as the protocol from ATCC. Cells were harvested and suspended at concentration 1×10^6/ml in assay buffer containing 1×DELFIA L*R binding buffer (PerkinElmer), 50% of DELFIA stabilizer (PerkinElmer) and 0.05% of sodium azide. 100 μl of cells (1×10^5) was added into wells in 96 well cell culture plate. The plate was incubated with gentle shaking at 4° C. for one hour. 100 μl of assay buffer containing 2 nM of Europium-labeled HMGB-1 mixed with various concentrations (333, 166.5, 83.25, 41.6, 20.8, 10.4 and 5.2 nM) of human anti-HMGB1 antibodies E11 or G2 or soluble human RAGE-Fc, were added into each wells respectively. After one hour incubation with gentle shaking at 4° C., the cells were washed four times with 1×L*R wash buffer (PerkinElmer) by centrifuging at 1200 rpm×5 min. 200 μl of enhancement solution was added into each well to dissociate and enhance Eu fluorescence at 615 nm. The fluorescence was measured with Wallac Victor Fluorometer. Assay was performed in triplicate and human antibody R3-47 was used the negative isotype control.
# [3] = system: HMG1 peptides; test: HMG1 B Box and peptide mapping ELISA; type: binding; settings: overlapping HMGB1 peptides
# Experimental: HMG1 B Box and Peptide Mapping: Individual wells of a 96-well immunoplate (EIA/RIA plate, High binding, Costar) were coated with HMG1 B Box peptide amino acids 91-169 (FIG. 5A) or amino acids 150-183 (FIG. 5B) at 10 μg/ml in PBS at 4° C. overnight. The plate was then blocked with 4% milk powder dissolved in PBS at 37° C. for 1 hour. The blocking solution was removed and replaced with human anti-HMG1 antibodies at various concentrations (see FIGS. 5A-B). The plate was then washed (ELX-405 Plate washer, BIO-TEK) and secondary antibody (anti-human IgG-HRP, PIERCE) was added at a final concentration of 1:125,000 at 37° C. for 1 hour. HRP activity was detected with Sureblue HRP substrate (KPL). Plates were read at 450 nm using a Kinetic Microplate Reader (Molecular Devices). To obtain more detailed peptide mapping information, similar ELISA assays were performed using 16 biotinylated overlapping peptides spanning the HMGB1 protein from amino acid 1 to 215 as follows, maxisorp microtiter plate was coated with 2 μg/ml of NeutroAvidin (Pierce) overnight at 4° C. After washing and blocking with 1% BSA in PBS, the biotinylated peptides were individually added into the avidin coated wells and incubated for 30 min at room temperature. The serial diluted antibody G4, S16 and S6 at the initial concentration at 10 μg/ml were then transferred into the wells followed by adding mouse anti human IgG-HRP conjugate (Pierce). Detection was accomplished by adding 50 μl of tetramethylbenzidine (TMB) substrate (KPL) and the absorbance was read at […]. The peptides used were amino acids: 46-63; 61-78; 76-93; 91-108; 106-123; 136-153; 151-168; 166-183; 179-185; 181-198; and 196-215.
# [4] = system: CpG2216+thymus HMG1 induced IFN-a release (TLR9 signaling); test: Inhibition of HMG1 mediated enhancement of TLR9 signaling, CpG2216 + thymus HMG1 in bone marrow cells; type: cell-based; settings: mouse bone marrow cells
# Experimental: HMGB1+TLR Ligand: Freshly isolated bone marrow cells were stimulated with TLR ligands (TLR3:PolyIC@5 μg/mL; TLR4:LPS@2.5 ng/mL; TLR5:flagellin@0.25 μg/mL; TLR7:polyU@4 μg/mL or R837@5 μg/mL; TLR9:CpG2216@1 μM) with or without presence of thymus HMGB1 (10 μg/mL) for 24 hr. Cytokines in the supernatant were measured by ELISA.
# Inhibition of HMG1 Mediated Enhancement of TLR Signaling: Freshly isolated bone marrow cells were stimulated with TLR9 ligand CpG2216 (0.3 μM) and thymus HMGB1 (10 μg/mL) in the presence of different concentration of the anti-HMGB1 mAb E11 or control human IgG for 24 hr and IFN-a in the supernatant was measured by ELISA. CpG2216, HMGB1 and nonstimulatory DNA were used alone or in combination as controls for the assay.
Molecule,in vivo CIA passive [1] [%],block of HMG1 binding to THP-1 cells [2],detailed peptide mapping / domain recognized [3],inhibition of IFN-a release induced by CpG + thymus HMG1 [4],inhibition of IFN-a release induced by CpG alone [4]
B1,0,block the binding of HMG1 to THP-1 cells,,,
B2,0,,strongest binding to the B-box peptide 91-108 with lesser binding to peptides 166-183 and 179-186; also recorded: binds the B-box peptide 91-108 and to a lesser extent peptides 166-183 and 179-186,,
B3,,block the binding of HMG1 to THP-1 cells,recognizes the HMG1 A-Box,could be blocked; also recorded: inhibited the release of INF-a induced by CpG2216+thymus HMG1,"not blocked; also recorded: Neither E11, G4 or Rage/Fc inhibited"
